Reference: publication PMC7820887 (Frontiers in Immunology, 2020)
Substitutions are numbered along the chain they refer to.

T1: soluble extracellular domain of human IL-5 receptor alpha subunit (sIL-5Rα) (human, UniProt Q01344 21-333)
T1 chain: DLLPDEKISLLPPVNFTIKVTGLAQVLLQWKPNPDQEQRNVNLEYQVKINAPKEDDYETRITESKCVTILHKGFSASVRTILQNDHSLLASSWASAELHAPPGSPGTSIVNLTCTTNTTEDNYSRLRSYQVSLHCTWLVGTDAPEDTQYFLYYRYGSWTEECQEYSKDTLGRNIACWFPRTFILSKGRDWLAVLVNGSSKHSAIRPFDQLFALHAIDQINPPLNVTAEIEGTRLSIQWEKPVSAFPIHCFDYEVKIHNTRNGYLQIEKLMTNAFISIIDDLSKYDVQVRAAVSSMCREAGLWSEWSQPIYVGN

B1: benralizumab analogue (antibody, V domains shown)
VH: EVQLVQSGAEVKKPGASVKVSCKASGYTFTSYVIHWVRQRPGQGLAWMGYINPYNDGTKYNERFKGKVTITSDRSTSTVYMELSSLRSEDTAVYLCGREGIRYYGLLGDYWGQGTLVTVSS
VL: DIQMTQSPSSLSASVGDRVTITCGTSEDIINYLNWYQQKPGKAPKLLIYHTSRLQSGVPSRFSGSGSGTDFTLTISSLQPEDFATYYCQQGYTLPYTFGQGTKVEIK
notes: VH of benralizumab, made by DNA synthesis; VL of benralizumab, made by DNA synthesis; Human IgG1, kappa; VH and VL identical to commercial benralizumab but with core fucose on the Fc N-glycan; also called benralizumab analogue (fucosylated human IgG1); source: HEK293F, transiently transfected, purified (Protein A)
B2: 5R68 (antibody, V domains shown)
VH: QVQLVQSGAEVKKPGSSVKVSCKASGYTFTSYWINWVRQAPGQGLEWIGHIYPTATIAVYNDKFKDKATLTVDKSTNTAYMELSSLRSEDTAVYYCTRDYYGRSYYYAMDYWGQGTTLTVSS
VL: DIQMTQSPSTLSASVGDRVTITCKASQNVGTAVAWYQQKPGKAPKLLIYWASTRHTGVPDRFSGSGSGTDFTLTISSLQPDDFATYYCQQFGRYPYTFGSGTKVEVK
notes: Human IgG1, kappa; selected as scFab by yeast display from the hu2B7 VH-CDR2 library; source: HEK293F, purified (Protein A)
B3: hu2B7 humanized anti–IL-5Rα antibody (antibody, V domains shown)
VH: B2 VH with T54S, A55E, T56S, I57Y, A58T, V59N, D62Q
VL: B2 VL
notes: VH of hu2B7: CDRs of m2B7 grafted on the FRs of daclizumab, mouse ThrH93 (Kabat) kept; VL of hu2B7: CDRs of m2B7 grafted on the FRs of daclizumab, mouse AspL60 and AspL70 kept; Full-length human IgG1, kappa; source: HEK293F, transiently cotransfected, purified (Protein A)
B4: 5R65.7 (antibody, V domains shown)
VH: QVQLVQSGAEVKKPGSSVKVSCKASGYTFTSYWINWVRQAPGQGLEWIGHIYPNKNENYYNHKFKDKATLTVDKSTNTAYMELSSLRSEDTAVYYCTREFYGRQYYQAMDYWGQGTTLTVSS
VL: B2 VL
notes: as the VH of m6 (5R65) with mutations in VH-CDR3 (Kabat residues 95–100d were randomised); no mutations in VL-CDR3; Human IgG1, kappa; selected as scFab by yeast display from the 5R65 CDR3 library under kinetic screening; also called 5R65.7 Ab; source: HEK293F, purified (Protein A)
B5: 5R86 (antibody, V domains shown)
VH: B2 VH with A55S, T56S, I57V, A58K, V59F, D62N
VL: B2 VL
notes: as for B2
B6: 5R65.14 (antibody, V domains shown)
VH: B4 VH with F100H, Q104P, Q107N
VL: B2 VL
notes: as the VH of m6 (5R65) with mutations in VH-CDR3 (Kabat residues 95–100d were randomised); no mutations in VL-CDR3; Human IgG1, kappa; selected as scFab by yeast display from the 5R65 CDR3 library under kinetic screening; source: HEK293F, purified (Protein A)
B7: 5R65.39 (antibody, V domains shown)
VH: B4 VH with Q104S, Y105R, Q107S
VL: B2 VL
notes: as for B6
B8: 5R80 (antibody, V domains shown)
VH: B2 VH with T54Q, A55K, I57L, A58T, V59I, D62H
VL: B2 VL
notes: as for B2
B9: 5R65.18 (antibody, V domains shown)
VH: B4 VH with F100Y, Q104T, Q107S
VL: B2 VL
notes: as for B6
B10: 5R65.10 (antibody, V domains shown)
VH: B4 VH with F100Y, Q104S, Q107A
VL: B2 VL
notes: as for B6
B11: 5R65.45 (antibody, V domains shown)
VH: B4 VH with F100Y, Q104S, Q107N
VL: B2 VL
notes: as for B6
B12: 5R65 (antibody, V domains shown)
VH: B4 VH with E99D, F100Y, Q104S, Q107Y
VL: B2 VL
notes: Human IgG1, kappa; selected as scFab by yeast display from the hu2B7 VH-CDR2 library; also called 5R65 Ab; source: HEK293F, purified (Protein A)
B13: m2B7 murine anti–IL-5Rα antibody (antibody, V domains shown)
VH: QVQLQQPGAELVRPGASVKLSCKASGYTFTSYWINWVKQRPGQGLEWIGHIYPSESYTNYNQKFKDKATLTVDKSSSTAYMQLSSPTSEDSAVYYCTRDYYGRSYYYAMDYWGQGTSVTVSS
VL: DIVMTQSHKFMSTSVGDRVSITCKASQNVGTAVAWYQQKPGQSPKLLIYWASTRHTGVPDRFTGSGSGTDFTFTISNVQSEDLADYFCQQFGRYPYTFGGGTKLEIK
notes: VH of murine m2B7; FRs of mouse germline IGHV1-61*01; VL of murine m2B7; FRs of mouse germline IGKV6-23*01; source: hybridoma supernatant, expanded and purified

Molecular target: T2, soluble extracellular domain of human IL-5 receptor alpha subunit (sIL-5Rα) (human, UniProt Q01344)
T2 construct: human IL-5 receptor alpha subunit (IL-5Rα, CD125), extracellular domain, residues 21–333; subcloned from a cDNA of residues 1–420; Expressed from the pSecTag2A vector; migrates at ~50 kDa (glycosylated); A biotinylated form (BirA) was used only for library screening; also called sIL-5α; CD125; source: HEK293F, transiently transfected, purified (Ni-NTA); not shown: Avi, C-terminal, kept; His6, …
Test: BLI; Octet QKe, 30°C, 1× kinetics buffer in PBS pH 7.4; Ab immobilised on anti-human IgG Fc capture (AHC) biosensors, sIL-5Rα as analyte; association 300 s, dissociation 600 s; 1:1 binding model
Settings: both partners purified

Binder | Kd | koff | kon
B1 | 26.8 ± 0.52 nM | 0.0011 s⁻¹ | 41100 M⁻¹ s⁻¹
B2 | 24.1 ± 0.47 nM | 0.000566 s⁻¹ | 23500 M⁻¹ s⁻¹
B3 | 47.8 ± 1.06 nM | 0.00106 s⁻¹ | 22200 M⁻¹ s⁻¹
B4 | 4.64 ± 0.23 nM | 0.000147 s⁻¹ | 31700 M⁻¹ s⁻¹
B5 | 11.8 ± 0.51 nM | 0.0003 s⁻¹ | 25400 M⁻¹ s⁻¹
B6 | 8.64 ± 0.35 nM | 0.000199 s⁻¹ | 23000 M⁻¹ s⁻¹
B7 | 6.13 ± 0.32 nM | 0.000171 s⁻¹ | 28000 M⁻¹ s⁻¹
B8 | 16.2 ± 0.59 nM | 0.000365 s⁻¹ | 22500 M⁻¹ s⁻¹
B9 | 5.95 ± 0.27 nM | 0.000133 s⁻¹ | 22400 M⁻¹ s⁻¹
B10 | 8.25 ± 0.4 nM | 0.000201 s⁻¹ | 24400 M⁻¹ s⁻¹
B11 | 7.26 ± 0.36 nM | 0.000181 s⁻¹ | 24900 M⁻¹ s⁻¹
B12 | 14.5 ± 0.29 nM | 0.000329 s⁻¹ | 22700 M⁻¹ s⁻¹
B13 | 40.2 ± 0.84 nM | 0.000834 s⁻¹ | 20700 M⁻¹ s⁻¹

Molecular target: T2, soluble extracellular domain of human …
Test: cell-based or functional assay
Settings: not given

Binder | IC50 of inhibition of rhIL-5 (80 pM)-stimulated proliferation of TF-1/IL-5Rα cells, Abs 0 to 32 nM, 40 h (blocks IL-5 with IL-5Rα) | NK cell–mediated ADCC against peripheral eosinophils from healthy controls (autologous NK cells 1:5, Ab 1 μM, rhIL-5 100 pM, 20 h), fold against the benralizumab analogue
B1 | ~1.99 nM | –
B4 | ~0.57 nM | ~3 fold
B12 | ~11.8 nM | ~1.5 fold

Molecular target: T3, insulin (Homo sapiens (assumed), UniProt P01308)
T3 construct: insulin B chain; insulin A chain; Off-target antigen of the nonspecificity ELISA (125 ng/well)
Test: ELISA; plates coated at 25°C for 1 h with sIL-5Rα (50 ng/well) or off-target antigens (insulin 125 ng/well, hemocyanin 125 ng/well); Abs 8–200 nM in PBST pH 7.4 with 2% skim milk, 25°C, 1 h; detected with HRP anti-human Fc or anti-mouse Fc
Settings: both partners purified

T3 sequence (P01308 whole entry, looked up): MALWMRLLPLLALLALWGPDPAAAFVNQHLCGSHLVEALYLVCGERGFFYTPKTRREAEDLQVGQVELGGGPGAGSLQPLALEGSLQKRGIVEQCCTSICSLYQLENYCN

Binder | binding result
B2 | no binding (tested: 100 nM)
B5 | no binding (tested: 100 nM)
B8 | no binding (tested: 100 nM)
B12 | no binding (tested: 100 nM)

Molecular target: T1, soluble extracellular domain of human …
Test: ELISA; competition with plate-immobilized IL-5-mFc
Settings: not given

Binder | IC50
B2 | 28.8 nM
B3 | 57.4 nM
B5 | 14.1 nM
B8 | 24.2 nM

Molecular target: T2, soluble extracellular domain of human …
Test: ELISA; competitive: plates coated with IL-5-mFc (100 ng/well); sIL-5Rα (50 nM) added with anti–IL-5Rα Abs (0–1 µM), 25°C, 1 h; bound sIL-5Rα detected with HRP anti-His
Settings: both partners purified

Binder | IC50
B1 | ~9.8 nM
B12 | ~9.5 nM
